The values that follow are results of earlier work, collected in patent publication US20060110594A1, “Polymer-coated substrates for binding biomolecules and methods of making and using thereof” (priority 2004, published 2006).

For the series the following is noted: isoelectric point, listed property.

B1: Myoglobin: protein immobilized on EMA, 17.6 kDa (protein, UniProt P68082 2-154, looked up)
Myoglobin: GLSDGEWQQVLNVWGKVEADIAGHGQEVLIRLFTGHPETLEKFDKFKHLKTEAEMKASEDLKKHGTVVLTALGGILKKKGHHEAELKPLAQSHATKHKIPIKYLEFISDAIIHVLHSKHPGDFGADAQGAMTKALELFRNDIAAKYKELGFQG
modifications: immobilized on EMA
notes: protein immobilized on EMA, 17.6 kDa
Consider B1, for which the pI is 7.2.
